Among the data in patent US10202584B2, “Red-shifted luciferase-luciferin pairs for enhanced bioluminescence” (The Regents of the University of California, priority 2016, dated 2019) are Km and kcat values, retold here.

Substrate in data set [1]: O=c1c(Cc2ccccc2)nc2c(-c3ccccc3)[nH]c(-c3ccccc3)cn1-2
Nature of the data set: purified protein, by the assay type. The following applies: other: apparent, 100 pM enzyme, substrate 0.78 to 50 μM, assay buffer pH 6.0, mean ± s.d., n = 3, 37.0 °C.

Substrate in data set [2]: O=c1c(Cc2ccccc2)nc2c([Se]c3ccccc3)[nH]c(-c3ccccc3)cn1-2
Description: purified protein, by the assay type. The following applies: other: apparent, 100 pM enzyme, substrate 0.78 to 50 μM, assay buffer pH 6.0, mean ± s.d., n = 3, 37.0 °C.
Description: FIG. 8 is a panel of graphs showing substrate titrations with pure enzymes to determine apparent Michaelis constants (Km). Titrations using new luciferases (8a) and Fluc (8b) are shown. The final concentrations of all enzymes were 100 pM. Substrate concentrations varied from 0.78 to 50 μM, and peak bioluminescence intensities at individual substrate concentrations were used to fit the Michaelis-Menten equation. Data are shown as mean and s.d. of three independent experiments.
Luciferases were expressed and purified as His6-tagged fusion proteins (FIG. 18).
A Synergy Mx Microplate Reader (BioTek) was used for all in vitro bioluminescence characterizations. For kinetics measurements, no emission filter or monochromator was used. 50 μL of luciferin substrates in the assay buffer (1 mM CDTA, 0.5% Tergitol NP-40, 0.05% Antifoam 204, 150 mM KCl, 100 mM IVIES pH 6.0, 1 mM DTT, and 35 mM thiourea) was injected into the wells of white 96-well plates containing 50 μL of pure enzymes in the same assay buffer. The final concentrations of all enzymes and substrates were 100 pM and 30 μM, respectively. Measurements were taken every 60 s post-injection (1-s integration and 10-s shaking during intervals). FLuc bioluminescence assays were performed similarly, except the assay buffer contained 30 mM MOPS, pH 7.0, 1.5 mM ATP, and 5 mM MgSO4.

Changes are numbered by the printed parent chain. Names and notes keep the numbering of the source.

The term Km denotes the concentration of substrate that gives half-maximal velocity. In general, kcat refers to the maximal rate divided by the concentration of active sites.

B1: teLuc, NanoLuc variant D19S/D85N/C164H, SEQ ID NO: 2 (Oplophorus gracilirostris; … (protein)
chain: MVFTLEDFVGDWRQTAGYNLSQVLEQGGVSSLFQNLGVSVTPIQRIVLSGENGLKIDIHVIIPYEGLSGDQMGQIEKIFKVVYPVDNHHFKVILHYGTLVIDGVTPNMIDYFGRPYEGIAVFDGKKITVTGTLWNGNKIIDERLINPDGSLLFRVTINGVTGWRLHERILA
As to B1, in data set [1], the Km turned out to be 10.2 ± 0.4 µM and the kcat amounted to 88.1 ± 0.1 s⁻¹.

B2: yeLuc0.8, NanoLuc variant L18Q/D19A/S28T/C164S, SEQ ID NO: 3 (Oplophorus gracilirostris; … (protein)
chain: B1 chain with L20Q, S21A, S30T, N87D, H166S
On to B2, for which the Km in data set [2] was found to be 6.3 ± 0.5 µM.

B3: Antares2 (Antares with NanoLuc replaced by teLuc, D19S/D85N/C164H; fused to CyOFP1) (Oplophorus gracilirostris; … (protein)
chain: B1 chain
Take B3: in data set [1], the Km was found to be 9.7 ± 0.2 µM and the kcat is 86.1 ± 0.7 s⁻¹.

B4: yeLuc, NanoLuc variant yeLuc0.8-F1L/A14D/V27L/Q69R/R112Q/L142R (yeLuc0.8 = NanoLuc-L18Q/D19A/S28T/C164S), SEQ ID NO: 4 (Oplophorus gracilirostris; … (protein)
chain: MVLTLEDFVGDWRQTDGYNQAQVLEQGGLTSLFQNLGVSVTPIQRIVLSGENGLKIDIHVIIPYEGLSGDRMGQIEKIFKVVYPVDDHHFKVILHYGTLVIDGVTPNMIDYFGQPYEGIAVFDGKKITVTGTLWNGNKIIDERRINPDGSLLFRVTINGVTGWRLSERILA
Regarding B4, in data set [2], the Michaelis-Menten constant (Km) amounted to 11.9 ± 0.9 µM and the kcat was found to be 175 ± 5 s⁻¹.
